Measurements reported in patent US20260356924 (published 2026).

molecular target: iPHF (human, UniProt P10636); test: SPR
Sequence (P10636 2-758): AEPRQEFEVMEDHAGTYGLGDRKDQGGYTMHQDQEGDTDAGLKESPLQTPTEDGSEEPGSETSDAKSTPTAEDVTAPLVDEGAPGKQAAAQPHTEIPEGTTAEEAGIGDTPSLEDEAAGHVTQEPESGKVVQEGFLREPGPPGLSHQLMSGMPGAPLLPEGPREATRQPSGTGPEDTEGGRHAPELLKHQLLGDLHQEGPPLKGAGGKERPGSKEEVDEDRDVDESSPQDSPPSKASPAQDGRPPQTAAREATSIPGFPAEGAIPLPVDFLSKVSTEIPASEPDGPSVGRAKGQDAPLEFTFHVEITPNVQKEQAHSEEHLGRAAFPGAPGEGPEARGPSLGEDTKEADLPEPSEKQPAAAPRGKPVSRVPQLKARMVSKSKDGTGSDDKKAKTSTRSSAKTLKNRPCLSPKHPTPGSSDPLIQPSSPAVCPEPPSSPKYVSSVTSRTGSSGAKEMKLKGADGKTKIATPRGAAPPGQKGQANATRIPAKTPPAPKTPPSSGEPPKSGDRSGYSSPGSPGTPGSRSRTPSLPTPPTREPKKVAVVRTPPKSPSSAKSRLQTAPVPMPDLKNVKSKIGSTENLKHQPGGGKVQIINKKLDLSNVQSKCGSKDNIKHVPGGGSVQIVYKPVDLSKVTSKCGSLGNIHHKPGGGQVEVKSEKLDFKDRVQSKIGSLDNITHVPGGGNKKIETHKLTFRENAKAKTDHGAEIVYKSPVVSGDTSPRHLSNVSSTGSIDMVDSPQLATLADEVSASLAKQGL

Row | Binder | Kd [nM]
1 | hV0022 control (antibody, V domains shown, immunopurified paired helical filament tau, hyperphosphorylated) VH: QVQLQQPGTELVKPGSSVNLSCKASGFTFTRYWMHWVKERPGHGLEWIGNINPNNGGTDFNEKFKNKATLTVHKSSTTVFIQLSSLTSEDSAVYYCARGTGTGAMDYWGQGTSVTVSS VL: DVVMTQTPLSLPVSLGDQASISCRSSQSLVHNNGITYLYWYLQKPGQSPKLLIYRVSNRFSGVPDRFGGSGSGTDFTLKISRVEAEDLGVYFCFQGTHVPRTFGGGTKLEIK | 0.0162
2 | V0022 control (antibody, V domains shown, immunopurified paired helical filament tau, hyperphosphorylated) VH: QVQLQQPGTELVKPGSSVNLSCKASGFTFTRYWMHWVKERPGHGLEWIGNINPNNGGTDFNEKFKNKATLTVHKSSTTVFIQLSSLTSEDSAVYYCARGTGTGAMDYWGQGTSVTVSS VL: DVVMTQTPLSLPVSLGDQASISCRSSQSLVHNNGITYLYWYLQKPGQSPKLLIYRVSNRFSGVPDRFGGSGSGTDFTLKISRVEAEDLGVYFCFQGTHVPRTFGGGTKLEIK | 0.0165
3 | Ab7 (antibody, V domains shown, immunopurified paired helical filament tau, hyperphosphorylated) VH: QVQLVQSGAEVKKPGASVKVSCKASGFTFTRYWMHWVRERPGHGLEWIGNINPNNGGTDFNEKFKNRVTMTVHKSISTAYMELSSLRSDDSAVYYCARGTGTGAMDYWGQGTLVTVSS VL: DVVMTQSPLSLPVTLGQPASISCRSSQSLVHNNGITYLYWYQQRPGQSPRLLIYRVSNRFSGVPDRFSGSGSGTDFTLKISRVEAEDVGVYYCFQGTHVPRTFGQGTKLEIK | 0.0334
4 | Ab9 (antibody, V domains shown, immunopurified paired helical filament tau, hyperphosphorylated) VH: EVQLVQSGAEVKKPGSSVKVSCKASGFTFTRYWMHWVKERPGHGLEWIGNINPNNGGTDFNEKFKNRVTMTVHKSITTAYMELSRLTSDDSAVYYCARGTGTGAMDYWGQGTLVSVSS VL: DIVMTQSPLSLSVTPGQPASISCRSSQSLVHNNGITYLYWYLQKPGQSPQLLIYRVSNRFSGVPDRFSGSGSGTDFTLKISRVEAEDVGVYYCFQGTHVPRTFGQGTKVEIK | 0.044
5 | Ab10 (antibody, V domains shown, immunopurified paired helical filament tau, hyperphosphorylated) VH: EVQLVQSGAEVKKPGSSVKVSCKASGFTFTRYWMHWVKERPGHGLEWIGNINPNNGGTDFNEKFKNRVTMTVHKSITTAYMELSRLTSDDSAVYYCARGTGTGAMDYWGQGTLVSVSS VL: DIVMTQTPLSSPVTLGQPASISCRSSQSLVHNNGITYLYWYQQRPGQPPRLLIYRVSNRFSGVPDRFSGSGAGTDFTLKINRVEAEDVGVYFCFQGTHVPRTFGQGTKLEIK | 0.0304
6 | Ab11 (antibody, V domains shown, immunopurified paired helical filament tau, hyperphosphorylated) VH: QVQLVQSGAEVKKPGASVKVSCKASGFTFTRYWMHWVKERPGQGLEWMGNINPNNGGTDFNEKFKNRVTMTVHKSTSTVFIQLSSLRSEDTAVYYCARGTGTGAMDYWGQGTSVTVSS VL: DVVMTQSPLSLPVTLGQPASISCRSSQSLVHNNGITYLYWYQQRPGQSPRLLIYRVSNRFSGVPDRFSGSGSGTDFTLKISRVEAEDVGVYYCFQGTHVPRTFGQGTKLEIK | 0.0249
7 | Ab8 (antibody, V domains shown, immunopurified paired helical filament tau, hyperphosphorylated) VH: QVQLVQSGAEVKKSGASVKVSCKASGFTFTRYWMHWVRQAPGQGLEWIGNINPNNGGTDFNEKFKNRVTLIRDTSTTTVFIQLTSLTSEDSAVYYCARGTGTGAMDYWGQGTLVTVSS VL: DVVMTQSPLSLPVTLGQPASISCRSSQSLVHNNGITYLYWYQQRPGQSPRLLIYRVSNRFSGVPDRFSGSGSGTDFTLKISRVEAEDVGVYYCFQGTHVPRTFGQGTKLEIK | 0.0496
8 | Ab2 (antibody, V domains shown, immunopurified paired helical filament tau, hyperphosphorylated) VH: QVQLVESGAEVKKPGASVKVSCKASGFTFTRYWMHWVKERPGHGLEWMGNINPNNGGTDFNEKFKNRVTITVHKSASTAYMELSSLRSEDTAVYYCARGTGTGAMDYWGQGTTVTVSS VL: DVVMTQSPLSLPVTLGQPASISCRSSQSLVHNNGITYLYWYQQRPGQSPRLLIYRVSNRFSGVPDRFSGSGSGTDFTLKISRVEAEDVGVYYCFQGTHVPRTFGQGTKLEIK | 0.0293
9 | Ab1 (antibody, V domains shown, immunopurified paired helical filament tau, hyperphosphorylated) VH: QVQLVQSGAEVKKSGASVKVSCKASGFTFTRYWMHWVRQAPGQGLEWIGNINPNNGGTDFNEKFKNRVTLIRDTSTTTVFIQLTSLTSEDSAVYYCARGTGTGAMDYWGQGTLVTVSS VL: DIVMTQSPLSLSVTPGQPASISCRSSQSLVHNNGITYLYWYLQKPGQSPQLLIYRVSNRFSGVPDRFSGSGSGTDFTLKISRVEAEDVGVYYCFQGTHVPRTFGQGTKVEIK | 0.0434
10 | Ab6 (antibody, V domains shown, immunopurified paired helical filament tau, hyperphosphorylated) VH: QVQLVESGAEVKKPGASVKVSCKASGFTFTRYWMHWVKERPGHGLEWMGNINPNNGGTDFNEKFKNRVTITVHKSASTAYMELSSLRSEDTAVYYCARGTGTGAMDYWGQGTTVTVSS VL: DIVMTQSPLSLSVTPGQPASISCRSSQSLVHNNGITYLYWYLQKPGQSPQLLIYRVSNRFSGVPDRFSGSGSGTDFTLKISRVEAEDVGVYYCFQGTHVPRTFGQGTKVEIK | 0.0391
11 | Ab3 (antibody, V domains shown, immunopurified paired helical filament tau, hyperphosphorylated) VH: EVQLVQSGAEVKKPGSSVKVSCKASGFTFTRYWMHWVKERPGHGLEWIGNINPNNGGTDFNEKFKNRVTMTVHKSITTAYMELSRLTSDDSAVYYCARGTGTGAMDYWGQGTLVSVSS VL: DVVMTQSPLSLPVTLGQPASISCRSSQSLVHNNGITYLYWYQQRPGQSPRLLIYRVSNRFSGVPDRFSGSGSGTDFTLKISRVEAEDVGVYYCFQGTHVPRTFGQGTKLEIK | 0.0325
12 | Ab4 (antibody, V domains shown, immunopurified paired helical filament tau, hyperphosphorylated) VH: QVQLVQSGAEVKKPGASVKVSCKASGFTFTRYWMHWVKERPGQGLEWMGNINPNNGGTDFNEKFKNRVTMTVHKSTSTVFIQLSSLRSEDTAVYYCARGTGTGAMDYWGQGTSVTVSS VL: DIVMTQSPLSLSVTPGQPASISCRSSQSLVHNNGITYLYWYLQKPGQSPQLLIYRVSNRFSGVPDRFSGSGSGTDFTLKISRVEAEDVGVYYCFQGTHVPRTFGQGTKVEIK | 0.0353
13 | Ab5 (antibody, V domains shown, immunopurified paired helical filament tau, hyperphosphorylated) VH: QVQLVQSGAEVKKPGASVKVSCKASGFTFTRYWMHWVKERPGQGLEWMGNINPNNGGTDFNEKFKNRVTMTVHKSTSTVFIQLSSLRSEDTAVYYCARGTGTGAMDYWGQGTSVTVSS VL: DIVMTQTPLSSPVTLGQPASISCRSSQSLVHNNGITYLYWYQQRPGQPPRLLIYRVSNRFSGVPDRFSGSGAGTDFTLKINRVEAEDVGVYFCFQGTHVPRTFGQGTKLEIK | 0.0248

molecular target: ePHF (human, UniProt P10636); test: ELISA
Sequence (P10636 2-758): as the sequence (P10636 2-758) above

Row | Binder | EC50 [nM]
14 | Ab2 (antibody, V domains shown, enriched paired helical filament tau, hyperphosphorylated) VH: QVQLVESGAEVKKPGASVKVSCKASGFTFTRYWMHWVKERPGHGLEWMGNINPNNGGTDFNEKFKNRVTITVHKSASTAYMELSSLRSEDTAVYYCARGTGTGAMDYWGQGTTVTVSS VL: DVVMTQSPLSLPVTLGQPASISCRSSQSLVHNNGITYLYWYQQRPGQSPRLLIYRVSNRFSGVPDRFSGSGSGTDFTLKISRVEAEDVGVYYCFQGTHVPRTFGQGTKLEIK | 0.15
15 | Ab10 (antibody, V domains shown, enriched paired helical filament tau, hyperphosphorylated) VH: EVQLVQSGAEVKKPGSSVKVSCKASGFTFTRYWMHWVKERPGHGLEWIGNINPNNGGTDFNEKFKNRVTMTVHKSITTAYMELSRLTSDDSAVYYCARGTGTGAMDYWGQGTLVSVSS VL: DIVMTQTPLSSPVTLGQPASISCRSSQSLVHNNGITYLYWYQQRPGQPPRLLIYRVSNRFSGVPDRFSGSGAGTDFTLKINRVEAEDVGVYFCFQGTHVPRTFGQGTKLEIK | 0.14
16 | Ab11 (antibody, V domains shown, enriched paired helical filament tau, hyperphosphorylated) VH: QVQLVQSGAEVKKPGASVKVSCKASGFTFTRYWMHWVKERPGQGLEWMGNINPNNGGTDFNEKFKNRVTMTVHKSTSTVFIQLSSLRSEDTAVYYCARGTGTGAMDYWGQGTSVTVSS VL: DVVMTQSPLSLPVTLGQPASISCRSSQSLVHNNGITYLYWYQQRPGQSPRLLIYRVSNRFSGVPDRFSGSGSGTDFTLKISRVEAEDVGVYYCFQGTHVPRTFGQGTKLEIK | 0.16
17 | Ab9 (antibody, V domains shown, enriched paired helical filament tau, hyperphosphorylated) VH: EVQLVQSGAEVKKPGSSVKVSCKASGFTFTRYWMHWVKERPGHGLEWIGNINPNNGGTDFNEKFKNRVTMTVHKSITTAYMELSRLTSDDSAVYYCARGTGTGAMDYWGQGTLVSVSS VL: DIVMTQSPLSLSVTPGQPASISCRSSQSLVHNNGITYLYWYLQKPGQSPQLLIYRVSNRFSGVPDRFSGSGSGTDFTLKISRVEAEDVGVYYCFQGTHVPRTFGQGTKVEIK | 0.1
18 | Ab7 (antibody, V domains shown, enriched paired helical filament tau, hyperphosphorylated) VH: QVQLVQSGAEVKKPGASVKVSCKASGFTFTRYWMHWVRERPGHGLEWIGNINPNNGGTDFNEKFKNRVTMTVHKSISTAYMELSSLRSDDSAVYYCARGTGTGAMDYWGQGTLVTVSS VL: DVVMTQSPLSLPVTLGQPASISCRSSQSLVHNNGITYLYWYQQRPGQSPRLLIYRVSNRFSGVPDRFSGSGSGTDFTLKISRVEAEDVGVYYCFQGTHVPRTFGQGTKLEIK | 0.13
19 | Ab6 (antibody, V domains shown, enriched paired helical filament tau, hyperphosphorylated) VH: QVQLVESGAEVKKPGASVKVSCKASGFTFTRYWMHWVKERPGHGLEWMGNINPNNGGTDFNEKFKNRVTITVHKSASTAYMELSSLRSEDTAVYYCARGTGTGAMDYWGQGTTVTVSS VL: DIVMTQSPLSLSVTPGQPASISCRSSQSLVHNNGITYLYWYLQKPGQSPQLLIYRVSNRFSGVPDRFSGSGSGTDFTLKISRVEAEDVGVYYCFQGTHVPRTFGQGTKVEIK | 0.16
20 | Ab8 (antibody, V domains shown, enriched paired helical filament tau, hyperphosphorylated) VH: QVQLVQSGAEVKKSGASVKVSCKASGFTFTRYWMHWVRQAPGQGLEWIGNINPNNGGTDFNEKFKNRVTLIRDTSTTTVFIQLTSLTSEDSAVYYCARGTGTGAMDYWGQGTLVTVSS VL: DVVMTQSPLSLPVTLGQPASISCRSSQSLVHNNGITYLYWYQQRPGQSPRLLIYRVSNRFSGVPDRFSGSGSGTDFTLKISRVEAEDVGVYYCFQGTHVPRTFGQGTKLEIK | 0.17
21 | Ab3 (antibody, V domains shown, enriched paired helical filament tau, hyperphosphorylated) VH: EVQLVQSGAEVKKPGSSVKVSCKASGFTFTRYWMHWVKERPGHGLEWIGNINPNNGGTDFNEKFKNRVTMTVHKSITTAYMELSRLTSDDSAVYYCARGTGTGAMDYWGQGTLVSVSS VL: DVVMTQSPLSLPVTLGQPASISCRSSQSLVHNNGITYLYWYQQRPGQSPRLLIYRVSNRFSGVPDRFSGSGSGTDFTLKISRVEAEDVGVYYCFQGTHVPRTFGQGTKLEIK | 0.095
22 | Ab1 (antibody, V domains shown, enriched paired helical filament tau, hyperphosphorylated) VH: QVQLVQSGAEVKKSGASVKVSCKASGFTFTRYWMHWVRQAPGQGLEWIGNINPNNGGTDFNEKFKNRVTLIRDTSTTTVFIQLTSLTSEDSAVYYCARGTGTGAMDYWGQGTLVTVSS VL: DIVMTQSPLSLSVTPGQPASISCRSSQSLVHNNGITYLYWYLQKPGQSPQLLIYRVSNRFSGVPDRFSGSGSGTDFTLKISRVEAEDVGVYYCFQGTHVPRTFGQGTKVEIK | 0.085
